Drawing on the NTF2 design screens of Basanta et al. (2020), this text covers protease stability score for 47 sequences.

The series is described as follows: protease stability score; higher = more stable; yeast display proteolysis, trypsin and chymotrypsin.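 Also: relative to predicted unfolded state with 0 unfolded-like and 1 meaning tenfold more protease.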
The sequence “DEEEEYYRVAIEIWLRVMMTGDPKYFDRLADPHVRVEQGDKRLHGMEDWSKRLEHMRIDHINIHQFKVVNGKIHVDTEVRGDVDGVEFRTRMELIFEKVDGRWILRRIHIN” showed a protease stability score of 2.71.

Turning to “DEEEHALWHWFQEHVHALETGDEDTLRELADPNVRLDINGKRIHGRHQLEHLIHRIDHMRIDDYKIDHVDRQGEKVIIDGTFHGKIIQGDKTIHMHTRVIIILLKVDGQWRLKSEQID”, the protease stability score worked out at 1.12.

For the sequence “DEEEHDARELARIVIEQFLTGNEDMLREFMDPNTRLHVNGVHRHGRESMVIMLRQLRTKRVHIKSIRIIGEKVDVDGILNGEVNGVEDNHQVHFHLIKVDGQWYIHHVIIR”, the protease stability score amounted to 1.39.

In the case of “DEEEHDLRLAVELWHRLLETGDERVEKHLIDPHVRVHFNGRDLHGREAATWTLRTMGVKVFELKRIETFNGQVNIHQHVNVDGQHYDLIIHARKIDGRWVNESMRIH”, the protease stability score amounted to 0.667.

For the sequence “DEEEHDVEVAFREYVKSTKTGDEDTLRHLADPHVKIWVDGRDFHGREVYYRLEKKIMEEWRFHDMHVEHVLVQGNKMTLHTRIDGEFDGKKVNLEVIIISVKVDGQWMIHSLEHR”, the protease stability score amounted to 2.22.

For the sequence “DEEEHEAKRADEVYQHVMETGDERLLNEYFDPHYRLEQGDYELVGREEASRFLIEWMKHWRTEYRLDNYHVIGNKIRLEGELHIRYGNFTRSHRIVTYVLKVDGQWRIKKTEIR”, the protease stability score is 1.64.

As to “DEEEHEEKRLLEMHLHYLATGDEENLKKLLDPNVKLVVNGREIHGRERIIEFIRRLIEMWGVDRIDSRIRHVTSQGDKIRLEGEWIVGEKVIDTRLLAVKVDGRWVEETLILK”, the protease stability score worked out at 2.13.

As to “DEEEHEIRQAIELEIRLIETGDFKAMRKMADPHVRTHINIGDKRLDLHGRDFFEWWLRFVKGVTHRFEDFVSVGNKVHIIVQDQVGDKRYEVKIVFKKVDGRWRMTESEVHFE”, the protease stability score was 1.83.

For “DEEEHELLHFVHLWIDILRTGDWEKISEYADPNVKLIVGDKIFIGMEAFIEFMERFLRRVDHVQYEIRSIRAYDGVIEMHTEVREHQGDKEIHTEVHITFFVYNGVKKHIEIRIK”, the protease stability score stood at 2.48.

The sequence “DEEEHELQEAIEILKHDIETGNWERFVKRADPHARIRFNGRDLHGWERMKEVFEHVSKEFQNQKVEFETEHYFDGRVEVIVNIRIGDKNIHMRIISDKINGQWITREVRFH” had a protease stability score of 1.41.

“DEEEHEWRKVIHELLHAFMTGDWKRFLKLVDPHAKFLVDGQEMHGREVLKHYIDRIKNMRIEIRDETYDMVDGRMHSIFQLELTQGEYRHESYIEVIIKKFDGRWRVHEVDFEIR” displayed a protease stability score of 2.18.

Consider “DEEEHHIKTLLELHWEIWKTGDEDRFRELADPNTKLIVNGREVIGRERVAKVIHDILRHMRFHDFTLERDKIYNGQVDLHGTEYGHINGKNIERTHVFHIVIVNGVLKSIELRIH”, for which the protease stability score amounted to 1.01.

Take “DEEEHHMKLAYDILLQTLRTGDEDLMERLIDPNVRFELLIGDFILHIHGWELVVEWDIRIARQWRIEHVHIKRYEVFNGRSRVNVKIDGVVNGRRYRFDIIELSLVIDGRVHHRSQEII”: the protease stability score is 0.835.

“DEEEHIARHIFEHFITWLLTGDEEVLKDLADPNVRLDINGRHVVGREEFRRWLKEDLEHLRIHDMDLRRVRVQGNKMDLDVQVDGIVNGQHRHHNTRLIFEKVDGRWLLRSIIVK”: the protease stability score came out at 2.16.

Regarding “DEEEHIERTFKDLFEHALETGDEHLLKRLLDPHARFDINGRDFHGREEVRRFWEETEKKLGIKHSEFRFRRRDHQGDFVRIDLHVIIFIGDKIEHREVEFFLTKIDGVWMIREVRVR”, the protease stability score stood at 0.613.

“DEEEHIFQELIELWQTAMATGDEERTDRLLDPNAKIVINGVELHGMDEIKRLLEQMRLHVHDVKIDEIKFQGDYLHIDTTSDIIMRINGREHRIIVKTTVRMLKFDGRWWLHVISIR” yielded a protease stability score of 1.93.

Regarding “DEEEHIMKHELEKWWETVDTGDEDEMLRLADPNVRVDFNGREFVGREEFLKHVEFMVKEWRLTDRRIEREHVIDGKMIIHMRVHGTFNGKETDTRIEIILHVVDGKVKSEEYRIK”, the protease stability score turned out to be 2.06.

In turn, “DEEEHIMRRVTDILVHYIATGDEDSLTRLLDPHARIIIDGRTIHGREWIQHHLRRIDHIHMHSYHIHDIRIQGDKVYADQEIDVEHRVNGVTIRKRFHVNIITVKVNGQWYLHSINNQ” had a protease stability score of 1.45.

For the sequence “DEEEHKSKLAVELWHKVEETGDENTMKRLADPNVRIDINGVELHGMEVLVRRLREMGADHFHVDLRRVTVVNGRVHVNTEVIIRQGDKVIILTTRLHIEKVDGRWKITTIEFE”, the protease stability score came to 1.32.

“DEEEHLARKIATIMIHTLITGNEEEMRRLADPTTRFHDEDHTFHGMEEYNRFIKEWRERFPGVKEEWKIRHIHVINGVAHFDIELRIIVGDKEVSDRVEFIIVVVDGRVKSFELRHK” gave a protease stability score of 2.15.

As for “DEEEHLLRRVSHFWARARKTGNEEVIRDLMDPNMRSTINGVEFHGREEHLHTLREWRVKSVHFEHVHVVDGRIEIKMREDGFVNGRETHFTLRITIVIIDGVVHHISIDLR”, the protease stability score turned out to be 0.787.

Sequence “DEEEHLMREALNTFMRTLETGDERQLNELLDPDVRSRVDGQDLHGREHVVRLFEEFRRQARIHHVDVHHMDVIGDWIRVELRVDIRIGDKLYTYKKHIVALKVDGRWFMHRVEIH” yielded a protease stability score of 0.773.

“DEEEHLSKEAVRLYIESLHTGDEDLWRSLMDPNARLHINGREFHGMERVLRILREIRIKDTRIRDFHVVNGQVHNRMELEIKVGDKERSFDVELIAYKIDGRWITKSVIHH” displayed a protease stability score of 1.29.

“DEEEHNLKKFLEIFLKAERTGDEEALRRMLDPNTKFVVGDKTYHGREEYIRWLNEIRIHRTEDKHIEVQGNKLHMDTRRRMEIDGREIDTEVRLELEVINGVVKLIIVDIR”: the protease stability score amounted to 1.86.

On to “DEEEHNSQYAEELHIHLQETGDFEEFKKNVDPHVRLHSEINGKELRLHGRKIAEWLIEFWIKRIPNATIELHDSSIYNGKMHLDQRIKIGDKSMIVIVILEKVNGVWRVREMHITVR”, for which the protease stability score was found to be 1.37.

Consider “DEEEHRIIRFIKKVLDDIVTGDWDSFRRNLDPNAKLSAEFEGRREEHVGRDIATRWMREIRIHDMEIKDMRLIDGVNIVKGHFDGRINGQRIRTDTEIWLYVVDGRITSVTIHII”, for which the protease stability score is 0.776.

“DEEEHRLRHFSELFTELFKTGDWKTFAKLMDPEVRTHSEWNGQEFSDHGMEAIVHFFKEFVDKFKNLTFHLTRIEVQGDKVHIDTILIFNGKTFTTRLEFIVVNGRIKEVRYHVK” came in with a protease stability score of 1.13.

Turning to “DEEEHRVENMYHRWLHLWETGNEERLTELLDPNTRIVVGDKQIHGREEAHRVLQEFLKRADHIEEFRIHHLRVVGNKVESDTRLRGEIDGRDIDTRVHVHLLVIDGRLREINIQLE”, the protease stability score amounted to 1.57.

Turning to “DEEEHSAEHAIRILIELLYTGDEDQLERFMDPNTRLHIYFEGHEIHHHGMELISEIFSEIIHRIKNITYRVEDFHLVNGRVHLHGRWNINGKRTKEHWVVLKVDGVWILERVHIHIQ”, the protease stability score stood at 1.27.

For “DEEEHSLRLALKILIHTRRTGDEHLLTEMADPNTRLDVNGVEVHGMEIFSKLTHEVVKRADHVEVHVKHIDIYGDKIRVHSEINYRQGDKEHSEKVHLVIKKFNGRWILHFVHIG”, the protease stability score worked out at 1.48.

The sequence “DEEEHSYEWAHKVSRHTTETGNEDLSRELADPNVRVIIGDKEYHGWKFMTHLLAHLRIKHIIIRSIRVQGNKLDLNEEVHGEIDGKDETFKLDLVILKVNGRWVIKSVRVE” returned a protease stability score of 0.612.

“DEEEHTAHVAHKLWEDSLHTGNEDNHRKLLDPHARIIVNGRLLHGWEDVEKILKDLGIKVMHMELERIKVVGDKLRIVGHLETRFDGRTIRLREELVVRKFNGRWHIEEINIL” showed a protease stability score of 1.24.

On to “DEEEHVAWKIMEVFLEDLLTGDEDMLNRMADPHVRVIINGRENHGRESFEEFVRQIRIEDTRLKHVEIRTIGNKIHIYVHGELRLNINGKRIDRKTTWIFVIQKYDGRWILRFILIDIH”, for which the protease stability score is 2.31.

Turning to “DEEEHWAKEFLKIESEAMMTGDEESLIELIDPDARIQIGDKKYHGMEFVKYLFEQERKKLGIERVHVEFELKEIHYQGNYMIVDGIIRRSYGDKTETRRVIIYLIKFDGQWVIESIQFL”, the protease stability score came out at 0.863.

For “DEEEHWLKHWTDLHLFARITGDEELLMKMLDPDVRFHIGDKESHGREEVARLLIELWIHNQHVRRRIIVNGVSHIHGELDGEINGVRHRTEIEIHILVIDGRIHEIIIKVH”, the protease stability score stood at 1.24.

Take “DEEEHYLREYLRIVDEELHTGDEKLLAKLLDPEVRVDFNGVVNIGWETVRRHVHHIWMIFRDSKIHDVKVQGDKMIADGRVDVEIIVNGRTHRLELDTNLIFRKVNGRWVMQEIKIG”: the protease stability score stood at 2.25.

“DEEEIALKRIVELWLEVIETGDERITEHLLDPRARFEFENHSRHGRKELTRWMTQLGIKYLDLHRMHIRVFDGRLHVHIDGTEIYDGVRRKSEIRMDVLKVDGKWLVEEYSIRFK”: the protease stability score turned out to be 1.25.

“DEEEIEIRRIWERELHWRSTGDEKSLIELMDPRTIIEINGREIHGREEADRHVHEFAEKYKNVRVRYFVREIEVQGEFVHVHTEITLDFDGVEIRFFMILIILKIDGRWLSHRVIVH” showed a protease stability score of 0.81.

For “DEEEIHNRLAYRLSHELLETGDWHLMILLADPHVRFEDENHEAHGREEYKEHLNEIHELLGLEKFEVRIHSWRVYDGRVIVHGHILFNGVEFNVETVSLKFNGRWIIEEQRLE”, the protease stability score was determined as 1.36.

Sequence “DEEEKAHEHMLRVLLHLERTGNEKALTEMADPNVRIDWNGKEDHGMEHLLRHLREIRIKNFELTDERHQGDKIELRGRLHGFIGDKHIILEVELVWRKVNGRWQLTSMHIK” gave a protease stability score of 1.45.

Regarding “DEEEKALDHAWRRFLETLKTGDERKFHELLDPNVQIDWNGRKLHGMHLIVDIIRRVKNLKSHEIHIRHITVIGDKVEFRSDIRGTVDGVDTEIHTRYLFLKIDGQWVLHHEEIV”, the protease stability score came out at 2.22.

Turning to “DEEEKATHEAIEEIIETLRTGDEHIMRELMDPHVKVVQGDKEHHGRESFIKWMRLWFERAGVDQIDMRIKDHDSQGEKITLDGSLYVNGVEIDTHIISHKINGRWLNRSVIIQ”, the protease stability score was determined as 1.22.

Consider “DEEEKAVKHAVERFVESTQTGNEHKLNELMDPNVRIDFNGVELIGREWFSKLLSEIRSDRFHIHDIRLQGEKADNDTREKGHVDGRTTEMTVRLIWIKFDGKWRLETVIFQ”, for which the protease stability score worked out at 1.01.

“DEEEKDAIMLSEISTHLMSTGDEHETSHNADPNTRLEYGDFEFHGREEFIKIWVEQMEKVKGMTIRLHSIHVQGDKAVSHVKIHVNGVDFHIIYIAEKFNGRWQLRSSIVI” displayed a protease stability score of 1.06.

As to “DEEEKDAKEIFRLSHDWWRTGDEMLIHMNFDPNVRLRIGDKSSHGREDVARIIVKVYKDFGVKHFEIREVDHQGEKIKLDGVSNFNGKEVKIEISSNKVNGVWVIKEVNIQ”, the protease stability score was determined as 1.11.

Regarding “DEEEKDIRKALEWFWESFKTGDEDSVRKMLDPDTRIIYGDKEHHGRENASRFIHELKRRMGIKHTEIRLNSMEVQGDKVSFYTILILRFDGREIRIETHIEARKVDGRWFTTSIEFH”, the protease stability score worked out at 1.42.

With “DEEEKDMRHVLKLWVNEFLTGNEKNLSELMDPNVRVDIDGKQLHGRETLSHKIVEDAREARVRLEVESIRVVNGKAHVDVVLRFHQGDKSDHREIRVVFRKVDGRWLLHSLEVH”, the protease stability score was 1.37.
